Assay results reported in patent US20120171210A1, “METHODS AND COMPOSITIONS FOR INHIBITING C-MET DIMERIZATION AND ACTIVATION” (Genentech, Inc., priority 2003, published 2012).

B1: EC-WT: membrane-bound extracellular Met construct containing the Sema domain, V5/His tagged, expressed by transfection (protein, UniProt P08581 25-932, looked up)
extracellular domain: ECKEALAKSEMNVNMKYQLPNFTAETPIQNVILHEHHIFLGATNYIYVLNEEDLQKVAEYKTGPVLEHPDCFPCQDCSSKANLSGGVWKDNINMALVVDTYYDDQLISCGSVNRGTCQRHVFPHNHTADIQSEVHCIFSPQIEEPSQCPDCVVSALGAKVLSSVKDRFINFFVGNTINSSYFPDHPLHSISVRRLKETKDGFMFLTDQSYIDVLPEFRDSYPIKYVHAFESNNFIYFLTVQRETLDAQTFHTRIIRFCSINSGLHSYMEMPLECILTEKRKKRSTKKEVFNILQAAYVSKPGAQLARQIGASLNDDILFGVFAQSKPDSAEPMDRSAMCAFPIKYVNDFFNKIVNKNNVRCLQHFYGPNHEHCFNRTLLRNSSGCEARRDEYRTEFTTALQRVDLFMGQFSEVLLTSISTFIKGDLTIANLGTSEGRFMQVVVSRSGPSTPHVNFLLDSHPVSPEVIVEHTLNQNGYTLVITGKKITKIPLNGLGCRHFQSCSQCLSAPPFVQCGWCHDKCVRSEECLSGTWTQQICLPAIYKVFPNSAPLEGGTRLTICGWDFGFRRNNKFDLKKTRVLLGNESCTLTLSESTMNTLKCTVGPAMNKHFNMSIIISNGHGTTQYSTFSYVDPVITSISPKYGPMAGGTLLTLTGNYLNSGNSRHISIGGKTCTLKSVSNSILECYTPAQTISTEFAVKLKIDLANRETSIFSYREDPIVYEIHPTKSFISGGSTITGVGKNLNSVSVPRMVINVHEAGRNFTVACQHRSNSEIICCTTPSLQQLNLQLPLKTKAFFMLDGILSKYFDLIYVHNPVFKPFEKPVMISMGNENVLEIKGNDIDPEAVKGEVLKVGNKSCENIHLHSEAVLCTVPNDLLKLNSELNIEWKQAISSTVLGKVIVQPDQNFT
modifications: extracellular domain V5/His tag, membrane-bound

Legend:
Met [1] = target: T1, Met (Homo sapiens, UniProt P08581); conditions: Lokker et al., 1992; cited from earlier work
Target sequence in this assay (P08581 25-1390): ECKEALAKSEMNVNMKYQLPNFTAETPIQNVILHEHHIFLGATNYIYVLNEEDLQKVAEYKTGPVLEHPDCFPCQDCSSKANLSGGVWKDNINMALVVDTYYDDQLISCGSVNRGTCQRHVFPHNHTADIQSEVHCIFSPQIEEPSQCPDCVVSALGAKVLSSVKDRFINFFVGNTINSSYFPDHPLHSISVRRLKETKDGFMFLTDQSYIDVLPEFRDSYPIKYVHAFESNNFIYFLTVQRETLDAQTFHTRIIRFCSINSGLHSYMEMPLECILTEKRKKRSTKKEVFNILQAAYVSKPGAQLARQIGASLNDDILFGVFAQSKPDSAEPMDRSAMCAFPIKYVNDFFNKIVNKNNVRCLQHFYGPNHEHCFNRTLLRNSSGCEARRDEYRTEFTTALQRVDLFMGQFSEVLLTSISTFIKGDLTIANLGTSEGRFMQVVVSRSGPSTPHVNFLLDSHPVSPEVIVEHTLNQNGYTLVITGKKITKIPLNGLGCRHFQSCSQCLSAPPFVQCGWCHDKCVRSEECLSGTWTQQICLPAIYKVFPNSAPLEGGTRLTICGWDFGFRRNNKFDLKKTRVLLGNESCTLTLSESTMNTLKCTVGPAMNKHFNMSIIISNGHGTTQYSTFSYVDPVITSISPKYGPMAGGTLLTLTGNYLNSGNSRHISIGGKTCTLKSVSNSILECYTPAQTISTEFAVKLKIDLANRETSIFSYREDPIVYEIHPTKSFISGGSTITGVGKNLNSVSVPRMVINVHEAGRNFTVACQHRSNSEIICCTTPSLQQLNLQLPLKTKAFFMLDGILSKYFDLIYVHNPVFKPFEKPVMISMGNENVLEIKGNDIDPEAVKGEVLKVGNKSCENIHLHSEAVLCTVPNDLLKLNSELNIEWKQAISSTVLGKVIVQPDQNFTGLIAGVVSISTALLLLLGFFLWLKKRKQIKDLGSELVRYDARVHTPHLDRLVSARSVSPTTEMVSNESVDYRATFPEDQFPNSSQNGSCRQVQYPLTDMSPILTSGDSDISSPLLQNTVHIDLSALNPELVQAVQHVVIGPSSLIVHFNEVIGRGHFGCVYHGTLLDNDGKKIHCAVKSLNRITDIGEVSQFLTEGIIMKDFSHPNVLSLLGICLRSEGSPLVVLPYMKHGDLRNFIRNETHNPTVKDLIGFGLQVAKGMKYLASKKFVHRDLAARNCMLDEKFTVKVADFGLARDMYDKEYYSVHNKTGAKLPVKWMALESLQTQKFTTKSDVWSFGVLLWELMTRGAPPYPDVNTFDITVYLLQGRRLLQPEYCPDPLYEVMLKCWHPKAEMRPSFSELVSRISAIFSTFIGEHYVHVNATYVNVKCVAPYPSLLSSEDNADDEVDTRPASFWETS

[2] = target: T2, Met extracellular domain deletion mutants (EC-WT, ΔS, ΔP, ΔIPT3, TM) (Homo sapiens, UniProt P08581); assay: Co-immunoprecipitation of HGF / scHGF with V5/His-tagged Met deletion mutants; type: binding; conditions: lysates of transfected 293 cells incubated with 5 μg HGF or scHGF, HGF α chain immunoblot
T2 construct: Sub-domain deletions of the Met extracellular domain were made from the N-terminus and tagged after the TM region with V5/His; expressed in transfected cells; host or cells: 293 cells (lysates)
T2 sequence (P08581 308-959 limits assumed, stated change not applied, one chain of several): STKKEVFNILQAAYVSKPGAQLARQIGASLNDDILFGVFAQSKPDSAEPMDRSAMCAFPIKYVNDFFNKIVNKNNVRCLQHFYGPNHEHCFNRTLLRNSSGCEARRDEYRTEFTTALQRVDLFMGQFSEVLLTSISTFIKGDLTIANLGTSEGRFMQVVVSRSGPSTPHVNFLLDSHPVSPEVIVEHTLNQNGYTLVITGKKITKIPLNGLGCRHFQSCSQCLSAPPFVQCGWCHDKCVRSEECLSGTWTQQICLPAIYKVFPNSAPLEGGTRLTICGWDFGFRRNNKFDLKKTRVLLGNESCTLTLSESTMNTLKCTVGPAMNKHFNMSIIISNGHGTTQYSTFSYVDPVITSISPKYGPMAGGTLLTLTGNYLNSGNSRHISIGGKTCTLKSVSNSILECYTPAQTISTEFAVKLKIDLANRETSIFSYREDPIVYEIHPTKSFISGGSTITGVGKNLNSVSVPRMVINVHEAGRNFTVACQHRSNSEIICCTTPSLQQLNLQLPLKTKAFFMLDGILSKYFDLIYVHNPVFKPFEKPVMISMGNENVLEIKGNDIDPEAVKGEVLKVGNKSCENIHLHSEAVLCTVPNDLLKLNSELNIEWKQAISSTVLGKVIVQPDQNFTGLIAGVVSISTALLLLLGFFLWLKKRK
Text: Extracellular sub-domain deletions of c-Met were constructed using conventional PCR methods. N-terminal primers containing the start of Sema, PSI, first IPT, or fourth IPT domains flanked by a KpnI site were paired with a C-terminal primer up to Met residue 959 flanked by a StuI site. c-Met was used as template and the PCR fragments for each clone were inserted into pCR-Blunt II-TOPO vector using the Zero Blunt TOPO PCR cloning kit (Invitrogen) according to manufacturer's instructions. The clones were confirmed by DNA sequencing. The constructs were then subcloned into pcDNA3.1 V5/His vector (Invitrogen) via KpnI and EcoRV to add a tag at the C-terminus. The signal peptide of Met was added via the HindIII and KpnI sites at the N-terminus of each clone. Each clone was digested with HindIII and EcoRV and subcloned into pRK5TKneo vector via HindIII and PmeI. For EC-WT Flag and EC-WT V5/His clones, an N-terminal primer containing a HindIII site was paired with a C-terminal primer up to Met residue 595 flanked by a StuI site. EC-WT V5/His was subcloned via HindIII/StuI into the HindIII/EcoRV sites of pcDNA3.1 V5/His, and then subcloned into pRK5TKneo as described above. For EC-WT Flag, the PCR fragment was ligated to pCR-Blunt II-TOPO vector. […]
Cell lines were obtained from American Type Culture Collection (ATCC). […] Proteins were detected by enhanced chemiluminescence (ECL-Plus, Amersham). […]

[3] = tested on: recombinant EC-Met and Sema domain proteins; assay: Coimmunoprecipitation with recombinant EC-Met and Sema domain proteins; type: binding; conditions: data not shown
H441 cells = assay: Scrape assay (Met mediated cell motility); type: cell-based, Human; conditions: H441, 100 ng/ml HGF, serum-free
Procedure: H441 cells were seeded at a density of 4.5×10^4 cells/well in a 96-well plate with 10% FBS in 50:50 DMEM/F12. The next day, a single scrape was made in the confluent monolayer in each well as described previously (Lorenzato et al., 2002). The cells were then incubated with media containing 0.5% BSA and treated with mock, 10 μg/ml 5D5, 10 μg/ml Sema, or 100 ng/ml HGF. The scrape was monitored and photographed daily. Representative results are shown for Day 2.
H441 cells were used in a scrape assay as a measure of Met mediated cell motility (Lorenzato et al., 2002). H441 cells grown to high density were scraped in each well on day 0 and maintained in serum-free media containing 0.5% BSA for the duration of the experiment (FIG. 6). Cells were either treated with 10 μg/ml rSema or 5D5 or 100 ng/ml HGF as a positive control or mock treated. […] These observations were consistent in four separate experiments.
To examine the effect of rSema on cell motility in the presence of ligand, cells were treated with 0, 0.1, 0.5, or 5 μg/ml rSema plus 20 ng/ml HGF. Cells treated with HGF alone closed the gap completely by Day 1.

MAPK = MAPK phosphorylation in A549 cells (immunoblot); type: cell-based, Human; conditions: A549 cells transfected with Met deletion mutants, vs mock
Procedure: (§1) Cell lines were obtained from American Type Culture Collection (ATCC). 293 cells were maintained in DMEM supplemented with 10% FBS (Sigma), penicillin/streptomycin (GIBCO), and glutamine A549, H441, and MDA-MB-435 cells were maintained in 50:50 DMEM/F12 (Cellgro) supplemented with 10% FBS, penicillin/streptomycin, and glutamine Cells were transfected with 1-12 μg of the indicated constructs using Lipofectamine 2000 (Invitrogen) according to manufacturer's instructions. Twenty-four hrs later cells were harvested with 1% NP40 lysis buffer containing Complete protease inhibitor cocktail tablet and phosphatase inhibitor cocktail 2 (Roche and Sigma, respectively). For Met tyrosine phosphorylation and MAPK phosphorylation studies, cells were serum-starved for 2 hr with 0.5% BSA. Cells treated with 10 μg/ml anti-Met 5D5-Fab or rSema were incubated for an additional 1 hr prior to lysis. Cell debris was centrifuged and the supernatant was precleared with Protein A Sepharose (Sigma) or Protein G-Plus agarose beads (Santa Cruz) for 1 hr. 500 μg of lysates was then immunoprecipitated with 10 μg 5D5 antibody (Genentech) or 35 ul of Met (C-28) agarose conjugate (Santa Cruz) overnight at 4° C. with rotation. For HGF binding studies, 500 μg of lysates were incubated with 5 μg scHGF or HGF followed by immunoprecipitation with 1 μg of V5 antibody. Protein A or G beads were added for an additional 2 hrs before immunoprecipitates were washed 3 times with 1% NP40 lysis buffer. After addition of 2× sample buffer with 10 mM DTT, the samples were run on 4-12% Tris-glycine gels (Invitrogen). […] Proteins were detected by enhanced chemiluminescence (ECL-Plus, Amersham).
(§2) Human tumor cells were treated with increasing concentrations of rSema and analyzed for Met tyrosine phosphorylation and downstream activation of mitogen activated protein kinase (MAPK) upon HGF stimulation. […]

Met [4] = target: T1, Met; assay: Met tyrosine phosphorylation in A549 cells (immunoprecipitation / phosphotyrosine immunoblot); type: cell-based; set-up: endogenous in cells; host or cells: A549 (lung carcinoma); conditions: A549 cells transfected with Met deletion mutants, vs mock
Procedure: as §1, §2
Target sequence in this assay (P08581 308-1390, one chain of several): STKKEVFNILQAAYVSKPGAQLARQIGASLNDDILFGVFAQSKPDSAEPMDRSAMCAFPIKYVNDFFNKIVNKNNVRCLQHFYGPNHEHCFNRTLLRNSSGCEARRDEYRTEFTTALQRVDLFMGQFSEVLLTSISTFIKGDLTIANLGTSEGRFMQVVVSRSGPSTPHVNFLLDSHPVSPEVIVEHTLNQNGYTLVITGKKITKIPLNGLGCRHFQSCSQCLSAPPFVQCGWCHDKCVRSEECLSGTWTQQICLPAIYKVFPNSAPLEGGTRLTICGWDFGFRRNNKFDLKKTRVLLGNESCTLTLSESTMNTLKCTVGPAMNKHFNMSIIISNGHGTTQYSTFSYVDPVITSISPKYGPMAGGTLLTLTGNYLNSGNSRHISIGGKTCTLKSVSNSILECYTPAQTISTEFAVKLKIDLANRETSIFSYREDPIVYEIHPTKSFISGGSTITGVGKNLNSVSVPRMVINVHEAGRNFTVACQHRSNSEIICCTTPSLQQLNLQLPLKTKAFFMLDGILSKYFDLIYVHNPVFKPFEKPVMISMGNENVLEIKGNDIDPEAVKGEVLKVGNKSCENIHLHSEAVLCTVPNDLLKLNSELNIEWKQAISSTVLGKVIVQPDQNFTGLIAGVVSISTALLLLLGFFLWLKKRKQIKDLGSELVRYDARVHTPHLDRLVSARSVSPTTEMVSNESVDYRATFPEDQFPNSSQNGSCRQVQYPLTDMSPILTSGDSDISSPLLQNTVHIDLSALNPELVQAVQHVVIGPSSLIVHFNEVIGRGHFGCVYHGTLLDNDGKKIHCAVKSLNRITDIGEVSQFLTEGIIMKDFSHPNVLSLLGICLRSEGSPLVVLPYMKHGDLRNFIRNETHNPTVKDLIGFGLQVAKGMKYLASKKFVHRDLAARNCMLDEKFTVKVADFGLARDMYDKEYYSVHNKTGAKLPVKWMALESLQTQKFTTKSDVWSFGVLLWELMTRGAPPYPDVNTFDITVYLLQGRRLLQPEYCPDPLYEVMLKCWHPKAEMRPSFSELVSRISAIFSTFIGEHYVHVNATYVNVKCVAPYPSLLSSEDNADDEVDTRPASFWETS

Row | Molecule | binding and activation of the Met receptor (Met [1]) | binding to Met deletion mutants [2] | binding to recombinant EC-Met and Sema domain proteins [3] | gap closure in scrape assay (positive control) (H441 cells) | phospho-MAPK in transfectants (MAPK) | endogenous Met tyrosine phosphorylation in transfectants (Met [4])
1 | scHGF (R494E): Single-chain HGF containing an R494E mutation [reference compound] | binds and inhibits activation of the Met receptor | only binds EC-WT and not the Sema deleted mutants | bound to recombinant EC-Met and Sema domain proteins |  |  | 
2 | HGF: Recombinant HGF, cognate ligand of the Met receptor; positive control |  | bound EC-WT alone | bound to recombinant EC-Met and Sema domain proteins | closed the gap by Day 1 |  | 
3 | B1 |  |  |  |  | attenuation | attenuation
